{"source": "patent US20210238289A1", "about": "(Biogen, published 2021)", "binders": {"B1": {"name": "IgG1 control antibody (hu5c8 IgG1, glycosylated) (antibody)", "heavy": "not shown", "light": "DIVLTQSPATLSVSPGERATISCRASQRVSSSTYSYMHWYQQKPGQPPKLLIKYASNLESGVPARFSGSGSGTDFTLTISSVEPEDFATYYCQHSWEIPPTFGGGTKLEIKRTVAAPSVFIFPPSDEQLKSGTASVVCLLNNFYPREAKVQWKVDNALQSGNSQESVTEQDSKDSTYSLSSTLTLSKADYEKHKVYACEVTHQGLSSPVTKSFNRGEC", "notes": "also called IgG1 wild type"}, "B2": {"name": "EAG2476 (YC406-Fc; agly IgG4-Fc T299K, T307P, L309K, D399S) (other)", "Fc": "ESKYGPPCPPCPAPEFLGGPSVFLFPPKPKDTLMISRTPEVTCVVVDVSQEDPEVQFNWYVDGVEVHNAKTKPREEQFNSKYRVVSVLPVKHQDWLNGKEYKCKVSNKGLPSSIEKTISKAKGQPREPQVYTLPPSQEEMTKNQVSLTCLVKGFYPSDIAVEWESNGQPENNYKTTPPVLSSDGSFFLYSRLTVDKSRWQEGNVFSCSVMHEALHNHYTQKSLSLSLG", "modifications": "Aglycosylated through T299K. The Fc is a homodimer; one chain is given."}, "B3": {"name": "HP1/2 H1/L3 huIgG4P agly (N297Q, EU Numbering)/IgG1 chimera (antibody, V domains shown)", "VH": "EVQLVQSGAEVKKPGATVKISCKASGFNIKDTYMHWVQQAPGKGLEWMGRIDPASGDTKYDPKFQVRVTITADTSTDTAYMELSSLRSEDTAVYYCADGMWVSTGYALDFWGQGTLVTVSS", "VL": "SIVMTQSPDSLAVSLGERATINCKASQSVTNDVAWYQQKPGQPPKLLIYYASNRYTGVPDRFSGSGYGTDFTFTISSLQAEDVATYFCQQDYSSPYTFGQGTKVEIKR", "notes": "also called BIIB107; HP1/2 G4P agly/G1"}}, "key": {"CD64 (FcγRI)": {"molecular_target": "CD64 (FcγRI) (UniProt P12314 16-288, limits assumed)", "experiment": "solution competition SPR (Biacore); construct titrated into receptor, free receptor read on immobilized IgG1 MAb", "description": "(§1) Binding to Fcγ receptors was analyzed using solution affinity surface plasmon resonance (ref Day E S, Cachero T G, Qian F, Sun Y, Wen D, Pelletier M, Hsu Y M, Whitty A. Selectivity of BAFF/BLyS and APRIL for binding to the TNF family receptors BAFFR/BR3 and BCMA. Biochemistry. 2005 Feb. 15; 44(6):1919-31.) The method utilizes conditions of so-called “mass-transport-limited” binding, in which the initial rate of ligand binding (protein binding to the senor chip) is proportional to the concentration of ligand in solution (ref BIApplications Handbook (1994) Chapter 6: Concentration measurement, pp 6-1-6-10, Pharmacia Biosensor AB). Under these conditions, binding of the soluble analyte (protein flowing over chip surface) to the immobilized protein on the chip is fast compared to the diffusion of the analyte into the dextran matrix on the chip surface. Therefore, the diffusion properties of the analyte and the concentration of analyte in solution flowing over the chip surface determine the rate at which analyte binds to the chip. In this experiment, the concentration of free Fc receptor in solution is determined by the initial rate of binding to a CM5 Biacore chip containing an immobilized IgG1 MAb. Into these Fc receptor solutions were titrated the stability engineered constructs (see Table 10.1 below). […] Initial binding rates were obtained from raw sensorgram data (FIG. 14). […] The results are shown in Table 10.1 and reported as the average of two titrations."}, "CD16 (FcγRIIIa V158) [1]": {"molecular_target": "T1, CD16 (FcγRIIIa V158) (UniProt P08637 17-208)", "T1 construct": "V158 allotype as printed", "experiment": "solution competition SPR (Biacore); construct titrated into receptor, free receptor read on immobilized IgG1 MAb", "description": "as §1"}, "CD16 (FcγRIIIa V158) [2]": {"molecular_target": "T1, CD16 (FcγRIIIa V158)", "experiment": "solution competition SPR (Biacore); text value differing from the table (100.2)", "description": "Binding to Fcγ receptors was analyzed using solution affinity surface plasmon resonance (ref Day E S, Cachero T G, Qian F, Sun Y, Wen D, Pelletier M, Hsu Y M, Whitty A. Selectivity of BAFF/BLyS and APRIL for binding to the TNF family receptors BAFFR/BR3 and BCMA. Biochemistry. 2005 Feb. 15; 44(6):1919-31.) The method utilizes conditions of so-called “mass-transport-limited” binding, in which the initial rate of ligand binding (protein binding to the senor chip) is proportional to the concentration of ligand in solution (ref BIApplications Handbook (1994) Chapter 6: Concentration measurement, pp 6-1-6-10, Pharmacia Biosensor AB). Under these conditions, binding of the soluble analyte (protein flowing over chip surface) to the immobilized protein on the chip is fast compared to the diffusion of the analyte into the dextran matrix on the chip surface. Therefore, the diffusion properties of the analyte and the concentration of analyte in solution flowing over the chip surface determine the rate at which analyte binds to the chip. In this experiment, the concentration of free Fc receptor in solution is determined by the initial rate of binding to a CM5 Biacore chip containing an immobilized IgG1 MAb. Into these Fc receptor solutions were titrated the stability engineered constructs (see Table 10.1 below). […] Initial binding rates were obtained from raw sensorgram data (FIG. 14). […]"}, "CD16 (FcγRIIIa V158) [3]": {"molecular_target": "T1, CD16 (FcγRIIIa V158)", "experiment": "solution competition SPR (Biacore)"}, "[4]": {"molecular_target": "T2, VLA receptors (alpha-4 integrin) of cynomolgus monkeys in vivo (cynomolgus monkey, UniProt A0A2K5U6S2 34-1032)", "T2 construct": "whole, on cells; Receptor occupancy measured in dosed animals; also called free VLA receptors", "experiment": "model-estimated (direct Emax PKPD model) EC50 for the formation of drug-bound VLA in cynomolgus monkeys", "text": "HP1/2 human PKs were projected through allometric scaling on monkey PK parameters (k10, k12, k21 and V1). See Singh, A. P et al. The AAPS Journal, 17(2), 389-399. […] The inherent monkey parameters were directly applied to human including Km, V max and the PD parameters (Eₘ, EC₅₀, E₀ and V). […] See Muralidharan, K. K. et al. Journal of Clinical Pharmacology, 57(8), 1017-1030. The data were integrated using an empirical scaling approach combining the EC₅₀ parameter values obtained in monkeys (m) and humans (h), after adjusting for potency (Kd) differences across species: […]"}, "human alpha-4 integrin": {"molecular_target": "T3, human alpha-4 integrin (human, UniProt P13612 34-970, limits assumed)", "T3 construct": "also called the human receptor", "experiment": "in vitro binding affinity comparison; method not described"}, "[5]": {"molecular_target": "T4, cynomolgus monkey alpha-4 integrin (cynomolgus monkey, UniProt A0A2K5U6S2 34-970)", "T4 construct": "also called cynomolgus alpha-4 integrin", "experiment": "in vitro binding affinity comparison; method not described"}}}
{"binder": "B1", "values": [{"measurement": "IC50", "setting": "CD64 (FcγRI)", "value": 9.64, "unit": "µM"}, {"measurement": "IC50", "setting": "CD16 (FcγRIIIa V158) [1]", "value": 100, "unit": "µM"}, {"measurement": "IC50", "setting": "CD16 (FcγRIIIa V158) [2]", "value": 105, "unit": "µM"}]}
{"binder": "B2", "values": [{"measurement": "IC50", "setting": "CD16 (FcγRIIIa V158) [3]", "value": 1320, "unit": "µM"}]}
{"binder": "B3", "values": [{"measurement": "EC50", "setting": "[4]", "value": 4.73, "unit": "ng/mL"}, {"measurement": "fold higher affinity than natalizumab Fab fragment", "setting": "human alpha-4 integrin", "value": "> 19", "unit": "fold"}, {"measurement": "fold higher affinity than natalizumab intact", "setting": "human alpha-4 integrin", "value": "~5", "unit": "fold"}, {"measurement": "fold weaker affinity than to the human receptor", "setting": "[5]", "value": "~5", "unit": "fold"}]}
